According to patent US20190161555A1 (ALLIGATOR BIOSCIENCE, published 2019):
Numbering of substitutions follows the chain as printed. Blank lines part the entries; values can stand above or below the binder they belong to.

Experiments:
[1] = target: T1, human 5T4 on transfected cells (human, UniProt Q13641 32-420); assay: flow cytometry, CHO cells stably transfected with human 5T4
T1 construct: whole, on cells; for B16 and A9 cells only a 5T4 construct is named; also called 5T4-transfected B16 cells; B16-5T4
T1 sequence (looked up): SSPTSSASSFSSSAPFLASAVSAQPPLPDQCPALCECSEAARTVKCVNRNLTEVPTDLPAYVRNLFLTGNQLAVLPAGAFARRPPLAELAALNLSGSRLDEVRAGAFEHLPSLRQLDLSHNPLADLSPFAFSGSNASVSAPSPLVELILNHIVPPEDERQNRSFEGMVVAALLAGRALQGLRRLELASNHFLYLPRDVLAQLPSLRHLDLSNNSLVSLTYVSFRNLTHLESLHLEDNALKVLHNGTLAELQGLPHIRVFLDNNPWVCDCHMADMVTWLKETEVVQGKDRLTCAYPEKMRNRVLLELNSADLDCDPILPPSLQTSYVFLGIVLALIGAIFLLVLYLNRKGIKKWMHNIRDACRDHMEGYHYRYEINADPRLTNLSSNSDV
Procedure: (§1) Analysis of 5T4 mAb binding with flow cytometry was performed using 5T4-transfected cell lines and as negative control, mock transfected cells. Three different transfected cell lines used were used for this study; B16, A9 and CHO, transfected either with a 5T4 construct or with an empty vector control construct. Cells were stained with 5T4 antibodies diluted in FACS buffer (PBS, 0.5% BSA and 0.02% NaN₃). […] Samples were analysed either on a FACSCalibur or a FACSverse (BD Biosciences, Heidelberg, Germany) and mean fluorescence intensity (MFI) determined.
In a new attempt to calculate EC50 with flow cytometry a 5T4 mAb dose response experiment was performed using CHO cells stably transfected with human 5T4.

[2] = target: T1, human 5T4 on transfected cells; assay: flow cytometry, 5T4-transfected B16 cells
Procedure: as §1

[3] = target: T1, human 5T4 on transfected cells; assay: flow cytometry, 5T4-transfected A9 cells
Procedure: as §1

[4] = target: T2, 5T4 (immobilised for SPR) (UniProt Q13641 32-355, limits assumed, biotinylated on the MASS-1 platform); assay: SPR Biacore 3000, 5T4 amine-coupled, mAb injected, 1:1 Langmuir
T2 construct: also called biotinylated 5T4
T2 sequence (looked up): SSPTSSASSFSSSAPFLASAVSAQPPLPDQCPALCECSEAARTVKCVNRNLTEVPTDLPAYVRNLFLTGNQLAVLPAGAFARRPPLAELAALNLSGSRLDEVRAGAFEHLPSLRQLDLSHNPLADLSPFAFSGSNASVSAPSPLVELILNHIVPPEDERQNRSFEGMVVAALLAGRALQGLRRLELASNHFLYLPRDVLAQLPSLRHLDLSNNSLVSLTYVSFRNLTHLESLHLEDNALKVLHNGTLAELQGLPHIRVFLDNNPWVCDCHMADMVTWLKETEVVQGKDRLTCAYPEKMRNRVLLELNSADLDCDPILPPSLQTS
Procedure: Binding kinetics of the 5T4-specific mAbs have been studied using two different SPR-based platforms, the Biacore 3000 (GE Healthcare) and the MASS-1 platform (Sierra Sensors). Briefly, 5T4 was captured at the sensor chip surface either via direct amine coupling (Biacore platform) or using a streptavidin coated chip and biotinylated 5T4 (MASS-1 platform). The different 5T4-specific mAbs were then injected over the chip in increasing concentrations and the association and dissociation rates studied in real time. A 1:1 Langmuir model was used for curve fitting.

cynomolgus 5T4 = target: T3, cynomolgus 5T4 (Macaca mulatta (cynomolgus)); assay: flow cytometry, CHO cells transfected with cynomolgus 5T4
T3 construct: whole, on cells; stably transfected CHO cells; also called cyno5T4; cy5T4
Procedure: The potency of 5T4 antibodies in binding to cynomolgus 5T4 was determined by flow cytometry. CHO cells were stably transfected with […] (cynomolgus) 5T4. […] Samples were analysed either on a FACSCalibur or a FACSverse (BD Biosciences, Heidelberg, Germany) and mean fluorescence intensity (MFI) determined. […] To compare the EC50 values between human and cynomolgus 5T4, the cy5T4/hu5T4 ratio was calculated from the experiment with the full dose-response.

[5] = target: T4, human/mouse 5T4 chimera E5; assay: flow cytometry, cells with 5T4 chimera; % positive cells over that of the best clone
T4 construct: on stably transfected CHO cells
Procedure: (§2) Epitope mapping was performed by investigation of loss of binding by the antibodies using a panel of human/mouse chimeric 5T4 constructs by flow cytometry. […] Two strategies were used for the epitope mapping as illustrated in FIG. 5. In one approach, seven human/mouse 5T4 chimeras were constructed based on dividing 5T4 into seven different domains (FIG. 5). By replacing each domain with the corresponding mouse sequence seven human/mouse 7 5T4 human/mouse chimeras were generated. The chimeras were generated using the human protein 5T4 sequence NP_006661.1 (reference mRNA sequence NM_006670.4) and the corresponding mouse sequence NP_035757.2 (reference mRNA sequence NM_011627.4). The human/mouse chimeric DNA constructs, as well as human and mouse wild-type 5T4, were cloned into pcDNA3.1 expression vectors. […] In the other approach, cells transfected with a human/mouse 5T4 chimera (Woods et al., 2002) was used, in which mouse sequence in amino acid 173-420 replaced the human sequence (FIG. 5). As controls human 5T4 and mouse 5T4-transfected cells were used.
(§3) For flow cytometric analysis, cells were stained with different 5T4 antibodies diluted in FACS buffer (PBS, 0.5% BSA). […] Samples were analysed by FACSverse (BD Biosciences, Heidelberg, Germany) and % positive cells were determined. To compensate for variations in % 5T4 positive cells in the various transfected populations, binding levels were normalized within each chimera by dividing % positive cells for each clone with % positive cells for the clones resulting in the highest % positive cells (% pos cellsclonX/% positive cellsₘₐₓ). A normalized value≤0.75 was defined as mAb binding being dependent on the replaced region, whereas a normalized value≤0.25 was defined as complete dependence.

[6] = target: T5, human/mouse 5T4 chimera E4; assay: as above
T5 construct: on stably transfected CHO cells
Procedure: as §2, §3

[7] = target: T6, human/mouse 5T4 chimera E7; assay: as above
T6 construct: on stably transfected CHO cells
Procedure: as §2, §3

[8] = target: T7, human/mouse 5T4 chimera E1; assay: as above
T7 construct: on stably transfected CHO cells
Procedure: as §2, §3

[9] = target: T8, human/mouse 5T4 chimera E3; assay: as above
T8 construct: on stably transfected CHO cells
Procedure: as §2, §3

[10] = target: T9, human/mouse 5T4 chimera E6; assay: as above
T9 construct: on stably transfected CHO cells
Procedure: as §2, §3

[11] = target: T10, human/mouse 5T4 chimera E2; assay: as above
T10 construct: on stably transfected CHO cells
Procedure: as §2, §3

- EC50 [1]: 0.81 nM
- EC50 normalized to reference 1628 [1]: 1.6 ratio to 1628
- EC50 [2]: 0.8 nM
- Normalized EC50 (to 1628) [2]: 1.6 ratio to 1628
- Normalized EC50 (to 1628) [3]: 1.8 ratio to 1628
- Kd [4]: 0.2 nM
- koff [4]: 0.0001 s⁻¹
- kon [4]: 500000 M⁻¹ s⁻¹
- EC50 (cynomolgus 5T4): 0.7 nM
- normalized % positive cells [5]: 0.89
- normalized % positive cells [6]: 0.69
- normalized % positive cells [7]: 0.96
- normalized % positive cells [8]: 0.99
- normalized % positive cells [9]: 0.9
- normalized % positive cells [10]: 0.89
- normalized % positive cells [11]: 0.02
B1: 1210/1211 (antibody, IgG1, V domains shown)
VH: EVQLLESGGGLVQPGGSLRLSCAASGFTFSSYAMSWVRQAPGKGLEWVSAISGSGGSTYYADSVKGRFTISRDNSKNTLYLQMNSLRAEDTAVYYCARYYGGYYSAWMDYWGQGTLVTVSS
VL: DIQMTQSPSSLSASVGDRVTITCRASQSISSYLNWYQQKPGKAPKLLIYAASSLQSGVPSRFSGSGSGTDFTLTISSLQPEDFATYYCQQTYGYLHTFGQGTKLEIK
notes: 5T4 antibody

- EC50 [1]: 0.51 nM
- EC50 normalized to reference 1628 [1]: 1 ratio to 1628
- EC50 [2]: 1.8 nM
- Normalized EC50 (to 1628) [2]: 3.9 ratio to 1628
- Normalized EC50 (to 1628) [3]: 2.9 ratio to 1628
- Kd [4]: 2.3 nM
- koff [4]: 0.00028 s⁻¹
- kon [4]: 130000 M⁻¹ s⁻¹
- EC50 (cynomolgus 5T4): 1.53 nM
- normalized % positive cells [5]: 0.9
- normalized % positive cells [6]: 0.52
- normalized % positive cells [7]: 0.94
- normalized % positive cells [8]: 0.96
- normalized % positive cells [9]: 0.25
- normalized % positive cells [10]: 0.94
- normalized % positive cells [11]: 0.74
B2: 1206/1207 (antibody, V domains shown)
VH: EVQLLESGGGLVQPGGSLRLSCAASGFTFSGSSMSWVRQAPGKGLEWVSSIYYSGSGTYYADSVKGRFTISRDNSKNTLYLQMNSLRAEDTAVYYCARYGRNVHPYNLDYWGQGTLVTVSS
VL: B1 VL with T91G, G93Y, H96P
notes: 5T4 antibody
